Assay results: patent publication US20160264649A1 (published 2016)

Experiments:
Assay in all cases: cell-based or functional assay
HIV-1 92TH021 Env = HIV-1 92TH021 Env (HIV-1 strain 92TH021)
HIV-1 SF162 Env [1] = target: T1, HIV-1 SF162 Env (HIV-1 strain SF162, UniProt P19550 32-847)
aMLV Env = aMLV Env (aMLV)
HIV-1 NL43 Env = HIV-1 NL43 Env (HIV-1 strain NL43)
HIV-1 IAVI_C22 Env = HIV-1 IAVI_C22 Env (HIV-1 strain IAVI C22)
HIV-1 93IN905 Env = HIV-1 93IN905 Env (HIV-1 strain 93IN905)
HIV-1 94UG103 Env = HIV-1 94UG103 Env (HIV-1 strain 94UG103)
HIV-1 92BR020 Env = HIV-1 92BR020 Env (HIV-1 strain 92BR020)
HIV-1 SF162 Env [2] = target: T1, HIV-1 SF162 Env; remark: listed apart in the source
HIV-1 JR-CSF Env (gp160) = HIV-1 JR-CSF Env (gp160) (HIV-1 isolate JR-CSF, UniProt P20871 32-848)
HIV-1 JR-CSF Env (gp160), sequence (P20871 32-848): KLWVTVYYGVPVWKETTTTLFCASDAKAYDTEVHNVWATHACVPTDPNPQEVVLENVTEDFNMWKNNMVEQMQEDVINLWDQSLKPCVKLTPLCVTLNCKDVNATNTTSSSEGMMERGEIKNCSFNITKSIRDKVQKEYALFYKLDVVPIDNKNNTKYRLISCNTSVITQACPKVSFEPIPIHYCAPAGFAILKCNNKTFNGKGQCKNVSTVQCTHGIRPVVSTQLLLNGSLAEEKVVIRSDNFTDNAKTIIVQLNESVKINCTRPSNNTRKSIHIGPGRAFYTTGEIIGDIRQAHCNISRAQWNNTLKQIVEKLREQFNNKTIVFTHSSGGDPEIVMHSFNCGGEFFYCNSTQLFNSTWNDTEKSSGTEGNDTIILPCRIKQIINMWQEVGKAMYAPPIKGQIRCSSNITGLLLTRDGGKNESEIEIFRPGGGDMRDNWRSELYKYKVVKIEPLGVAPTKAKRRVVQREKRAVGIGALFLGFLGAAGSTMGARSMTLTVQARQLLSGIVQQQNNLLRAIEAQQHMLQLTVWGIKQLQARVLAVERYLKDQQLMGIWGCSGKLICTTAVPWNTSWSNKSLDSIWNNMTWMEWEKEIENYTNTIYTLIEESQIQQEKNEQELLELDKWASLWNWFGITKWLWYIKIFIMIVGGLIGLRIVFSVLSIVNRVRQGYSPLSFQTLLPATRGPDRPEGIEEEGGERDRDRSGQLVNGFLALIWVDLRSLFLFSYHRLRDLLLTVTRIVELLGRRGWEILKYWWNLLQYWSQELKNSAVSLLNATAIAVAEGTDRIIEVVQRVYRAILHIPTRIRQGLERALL

Binder	IC50 neutralization, 1 hour virus/Ab incubation (HIV-1 92TH021 Env)	IC50 neutralization, 18 hour virus/Ab incubation (HIV-1 92TH021 Env)	IC50 neutralization, 1 hour virus/Ab incubation (HIV-1 SF162 Env [1])	IC50 neutralization, 18 hour virus/Ab incubation (HIV-1 SF162 Env [1])	IC50 neutralization, 1 hour virus/Ab incubation (aMLV Env)	IC50 neutralization, 18 hour virus/Ab incubation (aMLV Env)	IC50 neutralization, 1 hour virus/Ab incubation (HIV-1 NL43 Env)	IC50 neutralization, 18 hour virus/Ab incubation (HIV-1 NL43 Env)	IC50 neutralization, 1 hour virus/Ab incubation (HIV-1 IAVI_C22 Env)	IC50 neutralization, 18 hour virus/Ab incubation (HIV-1 IAVI_C22 Env)	IC50 neutralization, 1 hour virus/Ab incubation (HIV-1 93IN905 Env)	IC50 neutralization, 18 hour virus/Ab incubation (HIV-1 93IN905 Env)	IC50 neutralization, 1 hour virus/Ab incubation (HIV-1 94UG103 Env)	IC50 neutralization, 18 hour virus/Ab incubation (HIV-1 94UG103 Env)	IC50 neutralization, 1 hour virus/Ab incubation (HIV-1 92BR020 Env)	IC50 neutralization, 18 hour virus/Ab incubation (HIV-1 92BR020 Env)	Neutralization Index SF162 (clonal H and L transfectant) (HIV-1 SF162 Env [2])	IC50 neutralization, 1 hour virus/Ab incubation (HIV-1 JR-CSF Env (gp160))	IC50 neutralization, 18 hour virus/Ab incubation (HIV-1 JR-CSF Env (gp160))
1496_C09 (PG9) (TCN-109) (antibody, V domains shown) VH: QRLVESGGGVVQPGSSLRLSCAASGFDFSRQGMHWVRQAPGQGLEWVAFIKYDGSEKYHADSVWGRLSISRDNSKDTLYLQMNSLRVEDTATYFCVREAGGPDYRNGYNYYDFYDGYYNYHYMDVWGKGTTVTVSS VL: QSALTQPASVSGSPGQSITISCNGTSNDVGGYESVSWYQQHPGKAPKVVIYDVSKRPSGVSNRFSGSKSGNTASLTISGLQAEDEGDYYCKSLTSTRRRVFGTGTKLTVLG	0.0612 µg/mL	0.0571 µg/mL	> 50 µg/mL	> 50 µg/mL	> 50 µg/mL	> 50 µg/mL	0.294 µg/mL	38 µg/mL	24.9 µg/mL	2.11 µg/mL	0.144 µg/mL	0.0619 µg/mL	0.334 µg/mL	0.0942 µg/mL	> 50 µg/mL	> 50 µg/mL	–	–	–
1496 C09 γ3 017 + 1496 C09 λ3 024 (antibody, V domains shown) VH: QRLVESGGGVVQPGSSLRLSCAASGFDFSRQGMHWVRQAPGQGLEWVAFIKYDGSEKYHADSVWGRLSISRDNSKDTLYLQMNSLRVEDTATYFCVREAGGPDYRNGYNYYDFYDGYYNYHYMDVWGKGTTVTVSS VL: QSALTQPASVSGSPGQTITISCNGTSSDVGGFDSVSWYQQSPGKAPKVMVFDVSHRPSGISNRFSGSKSGNTASLTISGLHIEDEGDYFCSSLTDRSHRIFGGGTKVTVLG	–	–	–	–	–	–	–	–	–	–	–	–	–	–	–	–	0.94	–	–
1495_C14 (PGC14) (antibody, human IgG1, lambda, V domains shown) VH: DGHLVQSGVEVKKTGATVKISCKVSGYSFIDYYLHWVQRAPGKGLEWVGLIDPENGEARYAEKFQGRVTIIADTSIDTGYMEMRSLKSEDTAVYFCAAGAVGADSGSWFDPWGQGTLVTVSS VL: SYELTQPPSVSVSPGQTASITCSGSKLGDKYVSWYQLRPGQSPILVMYENDRRPSGIPERFSGSNSGDTATLTISGTQALDEADFYCQAWETTTTTFVFFGGGTQLTVLG	> 50 µg/mL	> 50 µg/mL	0.0069 µg/mL	< 0.0025 µg/mL	> 50 µg/mL	> 50 µg/mL	0.35 µg/mL	0.15 µg/mL	> 50 µg/mL	13.4 µg/mL	> 50 µg/mL	0.146 µg/mL	> 50 µg/mL	> 50 µg/mL	1.17 µg/mL	0.244 µg/mL	–	> 50 µg/mL	> 50 µg/mL
1456_P20 (PG20) (antibody, human IgG1, kappa, V domains shown) VH: QVRLVQSGPEVKKPGSSVTVSCQASGGTFSSYAFTWVRQAPGQGLEWLGMVTPIFGEAKYSQRFEGRVTITADESTSTTSIELRGLTSEDTAIYYCARDRRAVPIATDNWLDPWGQGTLVTVSS VL: DIQLTQSPSSLSASVGDRVSITCRASQTINNYLNWYQQTPGKAPKLLIYGASNLQNGVPSRFSGSGSGTDFTLTISSLQPEDFATYYCQQSFSTPRTFGQGTRLDIKR	> 50 µg/mL	> 50 µg/mL	0.195 µg/mL	0.0661 µg/mL	> 50 µg/mL	> 50 µg/mL	0.2 µg/mL	0.05 µg/mL	> 50 µg/mL	> 50 µg/mL	> 50 µg/mL	3.84 µg/mL	> 50 µg/mL	> 50 µg/mL	> 50 µg/mL	> 50 µg/mL	–	> 50 µg/mL	> 50 µg/mL
1460_G14 (PGG14) (antibody, human IgG1, kappa, V domains shown) VH: QVLLVQSGTEVKKPGSSVKVSCQASGGAFSSYAFSWVRQAPGQGLEWMGMITPVFGETKYAPRFQGRLTLTAEESLSTTYMELRSLTSDDTAFYYCTRDRRVVPMATDNWLDPWGQGTLVTVSS VL: DIQLTQSPSSLSASVGDRVTVTCRASQTIHTYLNWYQQIPGKAPKLLIYGASTLQSGVPSRFSGSGSGTDFTLTINSLQPEDFATYYCQQSYSTPRTFGQGTRLDIKR	> 50 µg/mL	> 50 µg/mL	–	–	> 50 µg/mL	> 50 µg/mL	0.17 µg/mL	0.05 µg/mL	> 50 µg/mL	> 50 µg/mL	> 50 µg/mL	3.17 µg/mL	> 50 µg/mL	> 50 µg/mL	> 50 µg/mL	> 50 µg/mL	39.4	–	–
1443_C16 (PG16) (TCN-116) (antibody, V domains shown) VH: QEQLVESGGGVVQPGGSLRLSCLASGFTFHKYGMHWVRQAPGKGLEWVALISDDGMRKYHSDSMWGRVTISRDNSKNTLYLQFSSLKVEDTAMFFCAREAGGPIWHDDVKYYDFNDGYYNYHYMDVWGKGTTVTVSS VL: QSALTQPASVSGSPGQTITISCNGTSSDVGGFDSVSWYQQSPGKAPKVMVFDVSHRPSGISNRFSGSKSGNTASLTISGLHIEDEGDYFCSSLTDRSHRIFGGGTKVTVLG	0.136 µg/mL	0.0435 µg/mL	> 50 µg/mL	> 50 µg/mL	> 50 µg/mL	> 50 µg/mL	< 0.0025 µg/mL	4.99 µg/mL	0.114 µg/mL	0.106 µg/mL	0.33 µg/mL	0.255 µg/mL	0.0211 µg/mL	0.0085 µg/mL	> 50 µg/mL	> 50 µg/mL	0.67	< 0.0025 µg/mL	< 0.0025 µg/mL
